Laboratory results reported in paper PMC3961392 (PLoS Pathogens, 2014).
Numbering of substitutions follows the chain as printed. In names and notes the source's numbering stands.

B1: APOBEC3F (enzyme, human, UniProt Q8IUX4 1-373, looked up)
chain: MKPHFRNTVERMYRDTFSYNFYNRPILSRRNTVWLCYEVKTKGPSRPRLDAKIFRGQVYSQPEHHAEMCFLSWFCGNQLPAYKCFQITWFVSWTPCPDCVAKLAEFLAEHPNVTLTISAARLYYYWERDYRRALCRLSQAGARVKIMDDEEFAYCWENFVYSEGQPFMPWYKFDDNYAFLHRTLKEILRNPMEAMYPHIFYFHFKNLRKAYGRNESWLCFTMEVVKHHSPVSWKRGVFRNQVDPETHCHAERCFLSWFCDDILSPNTNYEVTWYTSWSPCPECAGEVAEFLARHSNVNLTIFTARLYYFWDTDYQEGLRSLSQEGASVEIMGYKDFKYCWENFVYNDDEPFKPWKGLKYNFLFLDSKLQEILE
notes: also called A3F; not shown: GST, N-terminal, cleaved
B2: APOBEC3F NGM mutant (enzyme, human, UniProt Q8IUX4 1-373, looked up)
chain: B1 chain with P191G
notes: also called A3F NGM; A3F 190NGM192; not shown: GST, N-terminal, cleaved

Legend:
[1] = target: the molecule itself; test: SEC; 10-15 µg of purified enzyme (low enzyme concentration) on a 10 mL Superdex 200 column; 50 mM Tris pH 7.5, 200 mM NaCl; masses and oligomerization states from a Bio-Rad gel filtration standard curve
[2] = target: the molecule itself; test: SEC; data not shown; oligomerization state of the mutant enzymes, method as told for the A3 enzymes (Superdex 200, 50 mM Tris pH 7.5, 200 mM NaCl)

Protein	stoichiometry N [1]	stoichiometry N [2]
B1	4	–
B2	–	4
